{"source": "the nanobody polyreactivity screen of Harvey et al. (2022)"}
{"assay": "yeast display, Sf9 membrane polyspecificity reagent, FACS + sequencing; frameworks hold sequencing errors", "outline": "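Nanobodies came from a synthetic yeast display library in Saccharomyces cerevisiae BJ5465, induced with galactose for 36–48 hours and stained for 1 hour at 4 °C with 10% biotinylated, detergent-solubilized Sf9 membrane reagent. Cells were enriched on streptavidin microbeads and then FACS-sorted, with low and high (top ~1%) gates set on anti-HA fluorescence for expression and streptavidin fluorescence for reagent binding. Each polyreactivity label reflects the gate a clone came from. Genes were amplified by colony PCR, sequenced by MiSeq 2 × 250 and filtered by CDR length.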"}
{"sequence": "QVQLVESGGGLVQAGGSLRLICAASGFTFGGYAMGWYRPAPVKERELVAAINGNGGRTYSADSVKGRFTISRDKAKNTVYLQMISLKPEDTAVYYCYAAYRQHYRYYYWGQGTQVTVSS", "polyreactivity (PSR sort gate)": "high polyreactivity"}
{"sequence": "QVQLVESGGGLVQAGGSLRLICAASGFTFPPYAMGGYRQAPGKERELVAAITSSGGRTYYAYSVKGRFTISRDNAKNTVYLQMNSLKPEDTAFYYCAAYGRFARMNYWGQGTQVTVSS", "polyreactivity (PSR sort gate)": "high polyreactivity"}
{"sequence": "QVQLVESGGGLVQAGGSLRLICAASGFTFPVYARGWYRQAPGKERELVAAISSSGGTTYYADSVKGRFTISRDNAKNTVYLQMISLKPEDTAVYYCNAYYGSTAYGYDYWGQGTQVTVSS", "polyreactivity (PSR sort gate)": "low polyreactivity"}
{"sequence": "QVQLVESGGGLVQAGGSLRLICAASGFTFRYYAMGWYRQAPGTERELVAAISAGGGSTYYADSVKGRFTISRDNAKNTVYLQMNSLKPEETAVYYCAAAGARPGYDYWGQGTLVTVSS", "polyreactivity (PSR sort gate)": "high polyreactivity"}
{"sequence": "QVQLVESGGGLVQAGGSLRLICAASGFTFSTNAMGWYRQAPGKERELVAAITKSGGRTYYADSVKGRFTISRDNAKNTVYLQMNSLTPEDTAVYYCAAEVDRKGFYWYYWGQGTQVTVSS", "polyreactivity (PSR sort gate)": "high polyreactivity"}
{"sequence": "QVQLVESGGGLVQAGGSLRLICAASGFTFTGNAMGWYRQAPGKERELVAAITRGGSTKYADSVKGRITISRDNAMHTVYLQMNSLKPEDTAVYYCAAGVRYYRYYYWGQGTQVTVSS", "polyreactivity (PSR sort gate)": "high polyreactivity"}
{"sequence": "QVQLVESGGGLVQAGGSLRLICAASGFTFYENAMGWYRQAPGKERELVATISYSGGTTYADSVKGRFTISRDNAKNTVFLQMISLKPEDTAVYYCAADKDGYTYEFDYWGQGTQVTVSS", "polyreactivity (PSR sort gate)": "low polyreactivity"}
{"sequence": "QVQLVESGGGLVQAGGSLRLICAASGFTFYRYAMGWYRQAPGKERELVASITRSGGSTSYADSVKGRFTISRDNAKNSVYLQMNRLKPEDTAVFYCAAVTTQYLFSVPYYYWGQGTQVTVSS", "polyreactivity (PSR sort gate)": "high polyreactivity"}
{"sequence": "QVQLVESGGGLVQAGGSLRLICAASGGTFQSNAMGWYRQAPGKERELVASITSRGSSTYYADSVKGRFTISRDNAKNTVYLLMNSLKPEDTAVYYCAKGRSWQIYYKGGIKGGYWGQGTQVTVSS", "polyreactivity (PSR sort gate)": "low polyreactivity"}
{"sequence": "QVQLVESGGGLVQAGGSLRLICAASGGTFYAYAMGWYRQAPGKERELVAAITRSGGRTYYADSVKGRFTISRDNAKNTVSLQMNSLKPEDTAVYYCAADPHHYSGLDYWGQGTQVTVSS", "polyreactivity (PSR sort gate)": "low polyreactivity"}
{"sequence": "QVQLVESGGGLVQAGGSLRLICAASGGTFYINTMGWYRQAPGKERELVATITIVVSTKYADSVKGRFTISRDNAKNTVYLQMNSLKPEDTAVYYCAKDDVYRDSYLVFDGEMDYWGQGTQVTVSS", "polyreactivity (PSR sort gate)": "low polyreactivity"}
{"sequence": "QVQLVESGGGLVQAGGSLRLICAASGGTFYPYTMGGYRQAPGKERELVAAISRRSGRTYYADSVKGRFTISRDNAKNTVYLQMNSLKPEDTAVYYCNADGYTRAFDYWGQGTQVTVSS", "polyreactivity (PSR sort gate)": "high polyreactivity"}
{"sequence": "QVQLVESGGGLVQAGGSLRLICAASGIIFATYAMGWYRQAPGKERELVAVISNDGSTHYADSVKGRFTISRDNAKNTVYLQMNSLKPEDTAVYYCAARYPYDWRHDYWGQGTQVTVSS", "polyreactivity (PSR sort gate)": "low polyreactivity"}
{"sequence": "QVQLVESGGGLVQAGGSLRLICAASGIIFGYYAMGWYRQAPGKERELVAAITSGASTDYADSVKGRFTISRDNAKNTFYLQMNSLKPEDTAVFFCNADTSASTYTFPFDYCGQGTQVTVSS", "polyreactivity (PSR sort gate)": "low polyreactivity"}
{"sequence": "QVQLVESGGGLVQAGGSLRLICAASGITFDDYDMGWYRQAPGKEREFVSAISFSGSSTYYADSVKGRFTISRDKAKNTVYLQMNSLKPEDTAVYYCNADYVYSGGRYFGKDYWFDYWGQGTQVTVSS", "polyreactivity (PSR sort gate)": "low polyreactivity"}
{"sequence": "QVQLVESGGGLVQAGGSLRLICAASGITFDYYVMGWSRQAPGKERELVAVITWSGSTYYADSVKGRFTISRDNAKNTVYLQMNSLKPEDTAVYYCAADWVTYYDFEFYYWGQGTQVTVSS", "polyreactivity (PSR sort gate)": "high polyreactivity"}
{"sequence": "QVQLVESGGGLVQAGGSLRLICAASGITFVYYAMGWYRQAPGKERELVAAISKNSGSTYYADSVKGRFTISRDNAKNTVYLQKNSLNPEDTAVYYCAAEEGYPWVRYNYWGQGTQVTVSS", "polyreactivity (PSR sort gate)": "high polyreactivity"}
